Measurements published in PMC3779320, “Bub3 reads phosphorylated MELT repeats to promote spindle assembly checkpoint signaling” (eLife, 2013).
Square brackets hold non-standard residues; d marks the D form. Ends that are not written are not given here. pT = C[C@@H](OP(=O)(O)O)[C@H](N)C(=O)O

Key:
Bub1^289–359–Bub3 = biological target: T1, Bub1^289–359–Bub3 (Saccharomyces cerevisiae, UniProt P26449+P41695); experiment: ITC binding of MELT peptides to Bub1^289–359–Bub3 (wild type); conditions: 25°C, 20 mM Tris pH7.5, 150 mM NaCl, 1 mM DTE, complex 30 µM in cell, peptide 400 µM
T1 construct: S. cerevisiae Bub1^289–359 and for full length Bub3; GST (N, cleaved yes); made in house; host or cells: E. coli BL21 DE3 plysS
T1 sequence (P26449 1-341): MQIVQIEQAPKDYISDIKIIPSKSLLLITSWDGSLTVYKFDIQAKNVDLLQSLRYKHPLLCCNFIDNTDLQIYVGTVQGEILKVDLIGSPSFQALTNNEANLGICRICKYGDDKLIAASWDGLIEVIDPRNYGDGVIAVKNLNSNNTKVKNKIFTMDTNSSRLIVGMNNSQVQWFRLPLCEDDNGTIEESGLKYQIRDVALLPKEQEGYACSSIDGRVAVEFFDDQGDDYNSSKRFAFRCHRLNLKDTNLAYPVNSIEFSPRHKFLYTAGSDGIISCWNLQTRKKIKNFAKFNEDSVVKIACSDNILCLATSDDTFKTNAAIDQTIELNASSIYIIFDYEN
T1 sequence (P41695 289-359): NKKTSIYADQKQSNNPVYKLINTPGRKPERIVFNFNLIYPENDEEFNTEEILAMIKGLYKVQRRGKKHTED
Text: We generated recombinant ScBub1^289–359–Bub3 (where the Bub1 segment is equivalent to the minimal kinetochore targeting region of human Bub1 [[Krenn et al., 2012]]) by bacterial co-expression and purified it to homogeneity (Figure 1D). To assess whether Bub1–Bub3 binds directly to MELT^P sequences, we tested its ability to bind MELT sequences in quantitative isothermal titration calorimetry (ITC) binding experiments. 19-residue synthetic peptides encompassing the sequences of the second and fourth MELT^P motifs of Spc105/Knl1 (indicated as MELT2 and MELT4, respectively), each flanked by four and eleven residues on the N- and C-terminal ends, respectively, were tested (Figure 1C). […] Thus, ScBub1^289–359–Bub3 is sufficient for the reconstitution of tight interactions with two MELT^P peptides in vitro that recapitulate a salient feature of this interaction, its dependency on phosphorylation.
cDNA sequences coding for S. cerevisiae Bub1^289–359 and for full length Bub3 were subcloned in the first and second cassettes of pGEX-6P-2rbs vector ([Ciferri et al., 2005]). In this construct, the cDNA encoding Bub1^289–359 was sub-cloned in frame with the gene encoding GST and a cleavage site for PreScission protease, and was translated from the first ribosome-binding site (rbs). Untagged Bub3 was subcloned downstream of the second rbs in the same vector. Expression was carried out in BL21 DE3 plysS cells in LB medium by auto-induction with 0.3% lactose at 18°C for approximately 16 hr. Cells were harvested by centrifugation and resuspended in Buffer A (20 mM Tris pH 7.5, 300 mM NaCl, 10% Glycerol, 1 mM DTE, 1 mM EDTA pH 8.0, 1 mM PMSF) typically at a dilution of 3 ml lysis buffer per ml of bacterial pellet. Cells were lysed by sonication, and the lysates were cleared by centrifugation at 75000 × g for 45 min. The resulting clear supernatant was incubated with gentle rotation with 1/50 (vol/vol) of GSH-sepharose slurry (GE Healthcare) for 1–2 hr at 4°C. Beads were washed with 150 vol of Buffer A. To elute the Bub1–Bub3 complex from beads, GST-PreScission protease (0.02 mg/mg of protein target) was added for 16 hr at 4°C. The eluate was concentrated on Amicon Ultra Centrifugal Filters MwCO 3000 (Merck Millipore, Billerica, MA) and further purified by size exclusion chromatography (SEC) on a Superdex 75 16/60 column using GF buffer (20 mM Tris pH 7.5, 150 mM NaCl, 1 mM DTE). The complex eluted in a single peak with apparently stoichiometric amounts of Bub1^289–359 and Bub3 and was subsequently concentrated to ∼10 mg/ml for crystallization or to 2–4 mg/ml for ITC experiments. […]
Binding isotherm was measured at 25°C by isothermal titration calorimetry on a MicroCal ITC200 device (GE Healthcare, Piscataway, NJ). […]

Bub1^289–359–R314A–Bub3 = biological target: T2, Bub1^289–359–R314A–Bub3 (Saccharomyces cerevisiae, UniProt P26449+P41695, R314A); assay type: binding; conditions: ITC; Bub3-Bub1^R314A mutant compared to wild type Bub3–Bub1; MELT4^P: data not shown
T2 construct: S. cerevisiae Bub1^289–359 and for full length Bub3; ITC experiment with the MELT2^P peptide and the Bub1^289–359–R314A–Bub3 complex; GST (N, cleaved yes); made in house; host or cells: E. coli BL21 DE3 plysS
Text: Such function of Bub1 is probably exerted primarily through its structuring effects on the 4-stranded β-sheet ‘roof’ that dominates the peptide-binding region of Bub3 and which restrains the position of the positively charged residues in the ‘north’ area of the MELT^P-binding site (Figure 4E). Additionally, we observe that Arg314^Bub1, in the β1-β2 loop, contributes to the interaction with the phosphate group of P-Thr172^Spc105/Knl1 (the interaction, however, is only observed in one of the two complexes in the asymmetric unit, and in proximity of a crystal contact) and is therefore directly engaged in the interaction with the MELT2^P peptide. In ITC measurements, we observed a ∼fourfold reduction in the binding affinity of the Bub3-Bub1^R314A mutant for the MELT2^P peptide, in agreement with a role of Arg314^Bub1 is in the interaction of the Bub1-Bub3 complex with MELT2^P (Figure 4F). Similarly, Bub3–Bub1^R314A bound the MELT4^P with ∼threefold decreased affinity compared to wild type Bub3–Bub1 (data not shown).
Binding isotherm was measured at 25°C by isothermal titration calorimetry on a MicroCal ITC200 device (GE Healthcare, Piscataway, NJ). All samples were extensively dialysed into fresh GF buffer (20 mM Tris pH7.5, 150 mM NaCl, 1 mM DTE). […]

[1] = biological target: ScBub1^289–359–Bub3 complex (S. cerevisiae) (UniProt P41695); experiment: ITC; 25°C, MicroCal ITC200; 20 mM Tris pH7.5, 150 mM NaCl, 1 mM DTE; Bub1^289–359–Bub3 in the cell at 30 µM, titrated with thirty-five 2-µl injections of peptide at 400 µM; single-site binding model
[2] = biological target: T3, Bub1^289–359–Bub3^R217A complex (S. cerevisiae, UniProt P41695 289-359; P26449 1-341, R217A); experiment: as above; conditions: both partners purified
T3 construct: Bub3, S. cerevisiae, full length, with R217A; also called R217A mutant; source: expressed and purified essentially like the wild type complex (E. coli, GSH-sepharose, PreScission cleavage, SEC)
T3 sequence (looked up) 1: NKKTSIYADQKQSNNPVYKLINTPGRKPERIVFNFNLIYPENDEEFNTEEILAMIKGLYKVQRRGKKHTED
T3 sequence (looked up) 2: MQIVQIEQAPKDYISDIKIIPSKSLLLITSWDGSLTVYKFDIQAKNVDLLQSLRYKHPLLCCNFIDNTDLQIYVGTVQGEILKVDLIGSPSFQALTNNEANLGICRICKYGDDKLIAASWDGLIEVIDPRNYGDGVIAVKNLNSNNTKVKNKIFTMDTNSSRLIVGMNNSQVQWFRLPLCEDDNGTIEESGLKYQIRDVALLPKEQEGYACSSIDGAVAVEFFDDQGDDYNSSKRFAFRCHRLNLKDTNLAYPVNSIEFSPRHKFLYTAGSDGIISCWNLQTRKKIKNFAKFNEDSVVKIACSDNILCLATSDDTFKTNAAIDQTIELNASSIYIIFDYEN

[3] = biological target: T4, Bub1^289–359–R314A–Bub3 complex (S. cerevisiae, UniProt P41695 289-359; P26449 1-341, R314A); experiment: as above; conditions: both partners purified
T4 construct: Bub3, S. cerevisiae, full length; Probably GST-tagged on Bub1 and cleaved as the wild type; also called Bub3-Bub1^R314A mutant; Bub3–Bub1^R314A
T4 sequence (looked up) 1: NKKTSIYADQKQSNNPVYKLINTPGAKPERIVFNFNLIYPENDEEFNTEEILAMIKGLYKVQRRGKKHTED
T4 sequence (looked up) 2: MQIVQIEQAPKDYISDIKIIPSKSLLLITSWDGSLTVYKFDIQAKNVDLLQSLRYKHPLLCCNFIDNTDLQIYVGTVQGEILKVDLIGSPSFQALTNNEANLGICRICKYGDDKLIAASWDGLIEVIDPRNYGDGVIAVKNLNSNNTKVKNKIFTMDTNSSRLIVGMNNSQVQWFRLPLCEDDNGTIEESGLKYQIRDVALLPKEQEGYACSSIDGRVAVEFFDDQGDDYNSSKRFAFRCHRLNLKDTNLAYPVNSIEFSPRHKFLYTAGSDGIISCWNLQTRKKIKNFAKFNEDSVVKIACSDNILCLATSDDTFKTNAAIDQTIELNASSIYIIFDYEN

Bub3 (S. cerevisiae) = biological target: T5, Bub3 (S. cerevisiae) (S. cerevisiae, UniProt P26449 1-341); experiment: as above; conditions: both partners purified
T5 construct: Bub3, S. cerevisiae, full length (7-bladed WD40 beta-propeller); The methods tell the construct only for Bub3 co-expressed with Bub1; also called ScBub3; purified Bub3; source: Bub3 alone: purified, expression not described
T5 sequence (looked up): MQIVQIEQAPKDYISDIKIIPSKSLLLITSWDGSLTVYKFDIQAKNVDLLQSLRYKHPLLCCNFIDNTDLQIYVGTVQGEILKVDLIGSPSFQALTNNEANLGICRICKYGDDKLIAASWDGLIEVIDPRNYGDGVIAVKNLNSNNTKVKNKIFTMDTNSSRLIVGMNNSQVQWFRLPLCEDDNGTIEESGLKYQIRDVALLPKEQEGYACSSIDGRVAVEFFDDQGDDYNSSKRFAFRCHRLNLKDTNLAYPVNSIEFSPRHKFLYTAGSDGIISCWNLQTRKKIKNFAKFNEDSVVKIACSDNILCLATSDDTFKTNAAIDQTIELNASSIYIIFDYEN

[4] = biological target: T6, Bub1^289–359–Bub3^R239A complex (S. cerevisiae, UniProt P41695 289-359; P26449 1-341, R239A); experiment: as above; conditions: both partners purified
T6 construct: Bub3, S. cerevisiae, full length, with R239A; also called R239A mutant; source: expressed and purified essentially like the wild type complex (E. coli, GSH-sepharose, PreScission cleavage, SEC)
T6 sequence (looked up) 1: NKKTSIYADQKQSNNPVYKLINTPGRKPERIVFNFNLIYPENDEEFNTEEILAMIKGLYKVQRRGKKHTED
T6 sequence (looked up) 2: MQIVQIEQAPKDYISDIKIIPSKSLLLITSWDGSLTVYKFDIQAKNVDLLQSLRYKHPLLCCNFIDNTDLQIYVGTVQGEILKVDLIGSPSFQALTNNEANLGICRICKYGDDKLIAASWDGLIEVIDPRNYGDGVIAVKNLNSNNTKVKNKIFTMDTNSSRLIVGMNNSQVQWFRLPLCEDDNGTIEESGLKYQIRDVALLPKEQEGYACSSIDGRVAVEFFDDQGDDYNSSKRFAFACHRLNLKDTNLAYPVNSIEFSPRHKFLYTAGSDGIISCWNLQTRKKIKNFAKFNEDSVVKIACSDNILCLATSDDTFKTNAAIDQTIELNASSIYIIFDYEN

[5] = biological target: T4, Bub1^289–359–R314A–Bub3 complex; experiment: ITC; data not shown; method taken from the sentence before it (ITC measurements); conditions: both partners purified
[6] = biological target: T7, Bub1^289–359–R314A–Bub3 complex (S. cerevisiae, UniProt P41695 289-359; P26449 1-341, R314A); experiment: ITC
T7 sequence 1: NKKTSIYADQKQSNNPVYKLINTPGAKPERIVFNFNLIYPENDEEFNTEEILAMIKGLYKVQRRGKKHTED
T7 sequence 2: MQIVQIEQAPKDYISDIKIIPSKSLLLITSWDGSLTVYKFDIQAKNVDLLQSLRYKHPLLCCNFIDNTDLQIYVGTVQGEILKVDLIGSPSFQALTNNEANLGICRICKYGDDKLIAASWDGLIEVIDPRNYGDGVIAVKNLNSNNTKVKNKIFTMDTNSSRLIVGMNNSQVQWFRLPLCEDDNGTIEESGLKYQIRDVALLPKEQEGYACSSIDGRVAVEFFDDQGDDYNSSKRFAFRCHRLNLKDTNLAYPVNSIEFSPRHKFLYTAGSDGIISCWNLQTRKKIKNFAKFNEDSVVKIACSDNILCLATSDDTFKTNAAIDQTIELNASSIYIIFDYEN

Molecule: DTVEGEPIDL{PTHR}EYESKPYVPN [MELT4^P]
- binding (in words) (Bub1^289–359–Bub3): no binding
- fold reduction in binding affinity (Bub1^289–359–R314A–Bub3): threefold

Molecule: GGGPA{pTHR}PKKAKKL [H1^P, Histone H1-derived phosphorylated peptide GGGPA{pTHR}PKKAKKL, AnaSpec catalog number 61741, reference compound]
- binding (in words) (Bub1^289–359–Bub3): No binding
- binding (in words) (Bub1^289–359–Bub3; listed as unrelated phospho-peptide): did not show any binding affinity

Molecule: MELT2^P peptide (phosphorylated second MELT repeat of Spc105/Knl1)
- Kd [1]: 0.2 µM

Molecule: MELT4^P peptide (phosphorylated fourth MELT repeat of Spc105/Knl1)
- Kd [1]: 1.3 µM

B1: MELT2^P peptide (phosphorylated second MELT repeat of Spc105/Knl1) (peptide)
peptide: DPTSMEM[pT]EVFPRSIRQKN
notes: Spc105/Knl1, S. cerevisiae, second MELT repeat with four residues before and eleven after; Met169, Glu170, Met171, P-Thr172, Phe175 are the printed numbers; The end groups are told only for the peptide used for crystallisation; also called MELT^P peptide; Spc105/Knl1 phosphopeptide; source: synthetic peptide, custom made by GeneScript (95% purity)
- Kd [2]: 2.7 µM
- fold reduction in binding affinity against wild type Bub1^289–359–Bub3 [3]: ~4 fold
- Kd (Bub3 (S. cerevisiae)): 2 µM
- Kd [4]: 5 µM

B2: MELT4^P peptide (phosphorylated fourth MELT repeat of Spc105/Knl1) (peptide)
peptide: DTVEGEPIDL[pT]EYESKPYVPN
notes: Spc105/Knl1, S. cerevisiae, fourth MELT repeat; also called fourth MELT^P peptide; source: synthetic peptide, custom made by GeneScript (95% purity)
- fold decrease in affinity against wild type Bub3–Bub1 [5]: ~3 fold

Molecule: DPTSMEM[pT]EVFPRSIRQKN (not fully specified)
- Kd [6]: 0.79 µM
